These results are taken from patent publication US20100144838A1, “Methods for Identifying Modulators of Pyrimidine Tract Binding Protein” (priority 2008, published 2010).

For one series, the system named is A2780 sublines. Put plainly: Tumor growth in xenograft mouse model. Type of series: in vivo, Athymic nu/nu mice. The conditions noted are these: subcutaneous A2780 sublines; DOX 2 mg/ml in drinking water from inoculation or 12 days after; FIG. 3. The text has this: siRNA technology was .used to knock down the expression of PTB in tumor cells and to examine the effects of such manipulations on cell growth and malignant properties. Three siRNA (PTBsi1, PTBsi2, and PTBsi3) sequences targeting different regions of PTB mRNA were used. A siRNA can be generated as described in PCT/US2007/007352, which is herein fully incorporated by reference. Each of PTBsi1, PTBsi2, and PTBsi3 may be generated in a cell from a shRNA, which is formed after transcription of its coding sequence. The annealing of two oligonucleotides generates a DNA fragment with protruding ends compatible with Hind III and Bgl II restriction enzyme sites respectively. The coding sequences for each siRNA were cloned individually into a lentiviral vector downstream of H1 promoter and tetO element and thus the expression of these siRNAs is under control of doxycycline (DOX) (i.e. induced by DOX). We established several stable sublines carrying these expression cassettes. […] We have also examined whether knockdown of PTB could influence ovarian tumor cell growth in xenograft mouse model. […] Invasive cells were counted under microscope with high magnification (150×). […] Tumor sizes were measured in long and short dimensions every three or four days. Tumor size was calculated with formula axb2/2, where a=long dimension and b=short dimension. […]

In the next series the test system is PTB. Put plainly: Gene expression profiling, Affymetrix HG-U133 plus 2 oligonucleotide arrays. Type of series: cell-based. The conditions noted are these: A2780/PTBsi3 cells treated with DOX. The procedure:
Microarray analyses of genome-wide splicing patterns and gene expression profiling were performed in A2780/PTBsi3 cells with or without PTB knockdown. Gene expression profiling was assessed using Affymetrix HG-U133 plus 2 oligonucleotide arrays, and the splicing pattern was assessed by Jivan Biologics' splicing-sensitive microarrays. The former analysis was done three times and the latter was done twice with total RNAs isolated from separate experiments. We also examined the gene expression profile once in the control subline, A2780/LUCsi, grown with or without DOX.
However, in A2780/PTBsi3 cells treated with DOX (i.e. PTB knockdown), 52 genes were found consistently changed more than 2-fold in all three separate experiments. […] In total, we found 50 genes whose expression was regulated by PTB. […] We have validated these changes in a few of these genes (INHBE, CDC42, PTBP2 and PKP4) by real-time PCR or conventional RT-PCR.

B1: PTBsi3: siRNA targeting PTB mRNA, DOX-induced, generated in a cell from shRNA3 (SEQ ID NO: 5 and 6) (nucleic acid)
chain 1: GATCCCTGACAAGAGCCGTGACTACTTCAAGAGAGTAGTCACGGCTCTTGTCATTTTTGGAAA
chain 2: AGCTTTTCCAAAAATGACAAGAGCCGTGACTACTCTCTTGAAGTAGTCACGGCTCTTGTCAGGG
Consider B1, for which the tumor growth entry in the series on A2780 sublines is “grew slower”. Further, the PTB downregulation result in the series on PTB (all three experiments) is “about 4 fold”. Moreover, the “genes consistently changed more than 2-fold” value in the series on PTB (three separate experiments, signal intensity cutoff 200) is listed as 52 genes.

B2: PTBsi1: siRNA targeting PTB mRNA, DOX-induced, generated in a cell from shRNA1 (SEQ ID NO: 1 and 2) (nucleic acid)
chain 1: GATCCCCAGGTGACAGCCGAAGTGCATTCAAGAGATGCACTTCGGCTGTCACCTTTTTTGGAAA
chain 2: AGCTTTTCCAAAAATGCACTTCGGCTGTCACCTTCTCTTGAAAGGTGACAGCCGAAGTGCAGGG
As to B2, the tumor growth entry in the series with A2780 sublines is given as “grew slower”.
